In publication PMC11912937:

Target: FACT complex (SPT16/SSRP1), full length, untreated (human) (UniProt Q9Y5B9)
Experiment: SEC; analytical SEC of CCAN with different amounts of FACT; peak fractions on SDS-PAGE with TCE, tryptophan fluorescence of the bands normalised to the number of tryptophans and to SPT16

Chain of FACT complex (SPT16/SSRP1), full length, untreated (human) (Q9Y5B9 whole entry, chain 1 of 2): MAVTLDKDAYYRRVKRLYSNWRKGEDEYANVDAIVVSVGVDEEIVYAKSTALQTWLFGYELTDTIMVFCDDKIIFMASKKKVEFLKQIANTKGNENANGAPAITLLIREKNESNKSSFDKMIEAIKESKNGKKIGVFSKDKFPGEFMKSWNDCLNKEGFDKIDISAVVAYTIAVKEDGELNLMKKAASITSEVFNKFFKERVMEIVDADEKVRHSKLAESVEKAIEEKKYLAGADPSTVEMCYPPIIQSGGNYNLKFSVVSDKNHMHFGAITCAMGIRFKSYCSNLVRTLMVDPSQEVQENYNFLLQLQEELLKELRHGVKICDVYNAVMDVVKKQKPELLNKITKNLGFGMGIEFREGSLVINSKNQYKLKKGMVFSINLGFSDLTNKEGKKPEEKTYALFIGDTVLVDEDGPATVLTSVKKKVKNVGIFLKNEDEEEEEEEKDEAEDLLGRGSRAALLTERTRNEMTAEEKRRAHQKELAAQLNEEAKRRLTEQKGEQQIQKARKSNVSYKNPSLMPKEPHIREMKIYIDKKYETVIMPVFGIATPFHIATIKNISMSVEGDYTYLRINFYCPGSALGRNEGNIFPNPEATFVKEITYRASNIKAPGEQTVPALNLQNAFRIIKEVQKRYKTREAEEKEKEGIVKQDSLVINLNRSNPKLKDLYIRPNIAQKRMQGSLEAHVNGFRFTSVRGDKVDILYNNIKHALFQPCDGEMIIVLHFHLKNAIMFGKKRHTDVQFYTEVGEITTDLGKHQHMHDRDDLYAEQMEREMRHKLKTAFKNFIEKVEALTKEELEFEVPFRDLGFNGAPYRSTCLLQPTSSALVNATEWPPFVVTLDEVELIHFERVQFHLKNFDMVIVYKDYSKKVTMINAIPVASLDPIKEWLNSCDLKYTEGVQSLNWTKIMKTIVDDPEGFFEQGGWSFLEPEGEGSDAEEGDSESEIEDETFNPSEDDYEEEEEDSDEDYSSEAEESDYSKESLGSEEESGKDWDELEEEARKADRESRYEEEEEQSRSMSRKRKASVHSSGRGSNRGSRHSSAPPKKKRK
Chain of FACT complex (SPT16/SSRP1), full length, untreated (human) (Q08945 whole entry, chain 2 of 2, further chain): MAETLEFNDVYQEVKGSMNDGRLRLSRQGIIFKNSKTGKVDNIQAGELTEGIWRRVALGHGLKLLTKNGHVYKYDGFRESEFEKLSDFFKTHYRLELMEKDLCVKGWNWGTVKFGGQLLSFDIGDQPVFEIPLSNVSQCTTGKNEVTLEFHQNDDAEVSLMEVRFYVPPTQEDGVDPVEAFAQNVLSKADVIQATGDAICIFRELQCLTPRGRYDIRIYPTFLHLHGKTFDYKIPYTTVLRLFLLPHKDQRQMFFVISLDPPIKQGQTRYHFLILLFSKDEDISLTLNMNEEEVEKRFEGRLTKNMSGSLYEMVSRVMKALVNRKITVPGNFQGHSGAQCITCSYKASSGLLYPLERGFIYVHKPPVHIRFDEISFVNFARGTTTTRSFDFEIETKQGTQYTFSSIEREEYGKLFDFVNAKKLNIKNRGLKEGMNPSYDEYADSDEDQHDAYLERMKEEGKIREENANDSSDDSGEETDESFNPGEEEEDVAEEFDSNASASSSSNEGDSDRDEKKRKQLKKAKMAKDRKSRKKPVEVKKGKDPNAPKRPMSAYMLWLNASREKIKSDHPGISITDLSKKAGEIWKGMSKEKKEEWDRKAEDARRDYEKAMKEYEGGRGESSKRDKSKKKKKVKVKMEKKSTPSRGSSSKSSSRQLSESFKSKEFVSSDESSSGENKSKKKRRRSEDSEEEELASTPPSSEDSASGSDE

Substance “CCAN, 16-subunit constitutive centromere-associated network reconstituted with CENP-C^2–545 (from UniProt Q03188 2-545; Q9H3R5 1-247; Q92674 1-756; Q9BS16 1-269; Q9NSP4 1-180; Q8N0S6 1-344; Q96H22 1-339; Q9BU64 1-300; Q6IPU0 1-288; Q7L2Z9 1-268; Q71F23 1-418; Q13352 1-177; Q96BT3 1-561; Q5EE01 1-88; Q8N2Z9 1-138; A8MT69 1-81) (complex)” has a stoichiometry N (FACT per CCAN) of 1.
